# Laboratory results published in patent US7288251 (ABGENIX, dated 2007).
# T1: rat CD40 on blood cells (rat, UniProt A6JXD6 20-289)
# T1 construct: also called rat blood
# T1 sequence: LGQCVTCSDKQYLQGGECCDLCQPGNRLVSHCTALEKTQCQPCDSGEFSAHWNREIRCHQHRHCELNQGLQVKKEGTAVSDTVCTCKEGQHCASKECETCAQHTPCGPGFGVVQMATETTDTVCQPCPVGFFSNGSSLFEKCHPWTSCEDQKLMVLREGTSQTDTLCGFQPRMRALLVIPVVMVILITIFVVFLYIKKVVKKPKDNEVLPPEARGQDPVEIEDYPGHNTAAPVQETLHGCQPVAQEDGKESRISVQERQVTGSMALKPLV
# T2: dog CD40 on blood cells (dog, UniProt Q7YRL5 21-274)
# T2 construct: whole, on cells; also called dog blood
# T2 sequence (looked up): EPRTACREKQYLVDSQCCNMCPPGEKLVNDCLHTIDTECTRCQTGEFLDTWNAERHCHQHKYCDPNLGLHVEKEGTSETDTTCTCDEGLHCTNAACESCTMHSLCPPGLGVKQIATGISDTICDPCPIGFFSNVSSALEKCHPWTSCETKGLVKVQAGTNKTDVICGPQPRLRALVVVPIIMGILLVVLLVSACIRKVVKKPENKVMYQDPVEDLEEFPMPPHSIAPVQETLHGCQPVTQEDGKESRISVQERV
# B1: monoclonal antibody 21.4.1 (antibody, human IgG2, kappa, V domains shown)
# VH: not shown
# VL: DIQMTQSPSSVSASVGDRVTITCRASQGIYSWLAWYQQKPGKAPNLLIYTASTLQSGVPSRFSGSGSGTDFTLTISSLQPEDFATYYCQQANIFPLTFGGGTKVEIKR
# notes: Human IgG2 kappa from hybridoma; also called mAb 21.4.1; hybridoma 21.4.1 (LN 15853), ATCC PTA-3605
# Key:
# TNFR-2/Ig = molecular target: T3, TNFR-2/Ig; assay: ELISA, TNFR-2/Ig coated, antibody 1 µg/ml
# T3 construct: also called Tumor Necrosis Factor Receptor-2
# T3 sequence (P20333 23-257): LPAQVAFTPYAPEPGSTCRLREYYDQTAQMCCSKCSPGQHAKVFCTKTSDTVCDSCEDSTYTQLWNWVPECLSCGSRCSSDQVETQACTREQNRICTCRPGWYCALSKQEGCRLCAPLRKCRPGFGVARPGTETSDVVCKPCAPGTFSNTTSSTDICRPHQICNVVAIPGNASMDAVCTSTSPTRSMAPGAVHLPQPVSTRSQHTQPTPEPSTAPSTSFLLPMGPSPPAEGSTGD
# Method: (§1) We then washed the plate with PBST (PBS+0.1% Tween-20) three times and blocked the plate with PBST+0.5% BSA at 150 µl/well. We incubated the plate at room temperature for 1 hour and then washed with PBST three times. […] We incubated the plate at room temperature for 1 hour then washed with PBST three times. […] We incubated the plate at room temperature for 1 hour and then washed with PBST three times. […] We then read the plate using a SpectraMax™ plate reader.
# human CD40 on cells [1] = molecular target: T4, human CD40 on cells (human, UniProt P25942 21-277); assay: cell-based or functional assay
# T4 sequence (P25942 21-277): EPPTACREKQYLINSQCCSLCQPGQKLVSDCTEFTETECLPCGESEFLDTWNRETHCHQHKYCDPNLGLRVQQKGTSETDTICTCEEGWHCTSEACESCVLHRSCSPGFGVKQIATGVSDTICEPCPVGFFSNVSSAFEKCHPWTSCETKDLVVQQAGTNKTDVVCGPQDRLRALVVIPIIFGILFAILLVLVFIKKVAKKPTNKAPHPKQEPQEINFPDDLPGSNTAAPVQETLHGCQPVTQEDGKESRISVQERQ
# human CD40 on cells [2] = molecular target: T4, human CD40 on cells; assay: cell-based or functional assay; remark: listed apart in the source
# [3] = molecular target: T5, human/mouse chimeric CD40 HuD3 (mouse; human, UniProt P27512 20-94; P25942 95-147, limits assumed); assay: ELISA on chimeric CD40
# T5 construct: domain: D1-D2;domain: D3
# T5 sequence (P27512 other isoform, or with tags, fused parts or gaps mutant limits assumed): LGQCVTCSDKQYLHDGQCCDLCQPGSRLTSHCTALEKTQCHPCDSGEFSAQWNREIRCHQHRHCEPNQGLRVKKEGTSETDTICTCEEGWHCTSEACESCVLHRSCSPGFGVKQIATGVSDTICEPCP
# [4] = molecular target: T6, human/mouse chimeric CD40 HuD1, D3 (human; mouse, UniProt P25942 21-64; P27512 65-94; P25942 95-147, limits assumed); assay: ELISA on chimeric CD40
# T6 construct: domain: D1;domain: D2;domain: D3
# T6 sequence (P25942 other isoform, or with tags, fused parts or gaps mutant limits assumed): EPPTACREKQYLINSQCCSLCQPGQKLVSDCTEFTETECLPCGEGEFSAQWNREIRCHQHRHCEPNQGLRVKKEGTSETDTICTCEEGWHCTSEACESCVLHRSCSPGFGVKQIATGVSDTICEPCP
# [5] = molecular target: T7, human/mouse chimeric CD40 HuD2, D3 (mouse; human, UniProt P27512 20-64; P25942 65-147, limits assumed); assay: ELISA on chimeric CD40
# T7 construct: domain: D1;domain: D2-D3
# T7 sequence (P27512 other isoform, or with tags, fused parts or gaps mutant limits assumed): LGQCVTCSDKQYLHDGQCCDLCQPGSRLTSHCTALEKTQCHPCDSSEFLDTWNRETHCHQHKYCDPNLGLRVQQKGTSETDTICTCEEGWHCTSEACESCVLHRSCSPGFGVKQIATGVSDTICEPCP
# [6] = molecular target: T8, human/mouse chimeric CD40 HuD2 (mouse; human, UniProt P27512 20-64; P25942 65-94; P27512 95-147, limits assumed); assay: ELISA on chimeric CD40
# T8 construct: domain: D1;domain: D2;domain: D3
# T8 sequence (P27512 other isoform, or with tags, fused parts or gaps mutant limits assumed): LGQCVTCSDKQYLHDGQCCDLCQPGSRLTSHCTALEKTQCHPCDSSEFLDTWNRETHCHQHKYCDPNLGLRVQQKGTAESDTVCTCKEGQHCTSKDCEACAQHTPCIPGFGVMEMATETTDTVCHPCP
# [7] = molecular target: T9, human/mouse chimeric CD40 HuD1 (human; mouse, UniProt P25942 21-64; P27512 65-147, limits assumed); assay: ELISA on chimeric CD40
# T9 construct: domain: D1;domain: D2-D3
# T9 sequence (P25942 other isoform, or with tags, fused parts or gaps mutant limits assumed): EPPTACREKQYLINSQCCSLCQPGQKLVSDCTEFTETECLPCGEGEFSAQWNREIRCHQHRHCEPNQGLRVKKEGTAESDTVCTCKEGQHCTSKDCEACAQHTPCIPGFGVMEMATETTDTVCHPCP
# TNFR-1/Ig = molecular target: T10, TNFR-1/Ig; assay: ELISA, TNFR-1/Ig coated, antibody 1 µg/ml
# T10 construct: also called Tumor Necrosis Factor Receptor-1
# T10 sequence (P19438 whole entry): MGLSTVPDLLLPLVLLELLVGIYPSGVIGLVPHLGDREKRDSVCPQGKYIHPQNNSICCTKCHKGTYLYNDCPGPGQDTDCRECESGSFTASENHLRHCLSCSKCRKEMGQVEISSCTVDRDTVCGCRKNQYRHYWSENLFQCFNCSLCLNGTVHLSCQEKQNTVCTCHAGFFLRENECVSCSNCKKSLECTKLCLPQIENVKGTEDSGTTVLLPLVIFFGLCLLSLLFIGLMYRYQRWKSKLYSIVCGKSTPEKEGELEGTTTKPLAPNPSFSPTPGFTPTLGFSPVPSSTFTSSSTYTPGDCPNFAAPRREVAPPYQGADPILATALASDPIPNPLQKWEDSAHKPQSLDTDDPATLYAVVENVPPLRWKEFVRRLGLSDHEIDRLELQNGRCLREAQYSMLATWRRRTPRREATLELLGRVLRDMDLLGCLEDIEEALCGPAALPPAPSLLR
# Method: as §1
# RANK/Ig = assay: ELISA, RANK/Ig coated, antibody 1 µg/ml
# Sequence of RANK/Ig (Q9Y6Q6 whole entry, the tested form may be a part): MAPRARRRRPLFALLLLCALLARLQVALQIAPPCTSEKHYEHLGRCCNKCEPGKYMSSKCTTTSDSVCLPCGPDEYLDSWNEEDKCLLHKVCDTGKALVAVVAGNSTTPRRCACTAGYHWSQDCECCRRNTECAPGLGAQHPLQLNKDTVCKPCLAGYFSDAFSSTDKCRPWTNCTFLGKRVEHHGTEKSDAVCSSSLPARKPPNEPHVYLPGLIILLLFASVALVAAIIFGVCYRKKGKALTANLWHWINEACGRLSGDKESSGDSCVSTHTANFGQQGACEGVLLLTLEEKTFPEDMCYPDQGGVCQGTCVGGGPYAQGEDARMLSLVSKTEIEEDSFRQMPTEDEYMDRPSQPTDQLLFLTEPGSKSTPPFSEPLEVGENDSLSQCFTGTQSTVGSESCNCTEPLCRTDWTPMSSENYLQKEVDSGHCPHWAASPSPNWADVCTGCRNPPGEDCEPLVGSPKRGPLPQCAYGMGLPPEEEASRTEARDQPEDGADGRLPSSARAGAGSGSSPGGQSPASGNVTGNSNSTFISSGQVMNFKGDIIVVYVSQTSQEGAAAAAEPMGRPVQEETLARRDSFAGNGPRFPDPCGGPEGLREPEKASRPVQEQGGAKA
# Method: as §1
# [8] = molecular target: T11, human CD40-IgG1 Fc fusion protein (human, UniProt P25942 21-193); assay: SPR BIAcore 3000, CD40-Ig immobilised, antibody injected
# T11 construct: extracellular domain; also called CD40-Ig fusion protein; CD40-IgG fusion protein; not shown: human IgG1 Fc
# T11 sequence (P25942 21-193): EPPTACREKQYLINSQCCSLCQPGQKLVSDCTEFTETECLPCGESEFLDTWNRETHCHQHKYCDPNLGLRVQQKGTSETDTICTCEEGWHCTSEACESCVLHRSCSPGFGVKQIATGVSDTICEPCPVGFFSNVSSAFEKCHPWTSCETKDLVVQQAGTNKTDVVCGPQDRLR
# 4-1BB/Ig = molecular target: T12, 4-1BB/Ig; assay: ELISA, 4-1BB/Ig coated, antibody 1 µg/ml
# T12 construct: also called CD137
# Method: as §1
# human CD40 on cells [9] = molecular target: T4, human CD40 on cells; assay: cell-based or functional assay; remark: listed apart in the source
# rat CD40 on blood cells = molecular target: T1, rat CD40 on blood cells; assay: FACS, whole blood
# [10] = molecular target: T13, mouse CD40 on blood cells (mouse, UniProt P27512 20-289); assay: FACS, whole blood
# T13 construct: whole, on cells; also called mouse blood
# T13 sequence (P27512 20-289): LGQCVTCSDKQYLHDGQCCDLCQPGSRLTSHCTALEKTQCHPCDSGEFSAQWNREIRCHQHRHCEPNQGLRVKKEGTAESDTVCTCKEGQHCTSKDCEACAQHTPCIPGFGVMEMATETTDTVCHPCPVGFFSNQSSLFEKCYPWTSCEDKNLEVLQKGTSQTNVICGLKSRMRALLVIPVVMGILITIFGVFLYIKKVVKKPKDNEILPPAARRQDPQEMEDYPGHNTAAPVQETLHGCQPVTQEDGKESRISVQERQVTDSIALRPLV
# dog CD40 on blood cells = molecular target: T2, dog CD40 on blood cells; assay: FACS, whole blood
# Mouse CD40(D1-D3)-6Xhis = molecular target: T14, Mouse CD40(D1-D3)-6Xhis (mouse, UniProt P27512 20-147, limits assumed); assay: ELISA, 293F supernatant
# T14 construct: domain: D1-D3; also called Mouse CD40(D1-D3)-6xHis fusion protein
# T14 sequence (P27512 other isoform, or with tags, fused parts or gaps limits assumed): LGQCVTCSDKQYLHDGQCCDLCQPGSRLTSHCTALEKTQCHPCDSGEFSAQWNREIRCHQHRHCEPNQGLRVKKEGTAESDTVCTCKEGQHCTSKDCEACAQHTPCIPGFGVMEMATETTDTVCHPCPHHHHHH
# From the text: Binding of anti-CD40 human antibodies were detected with HRP conjugated goat anti-human IgG (FC specific Caltag H10507), diluted 1:2,000.
# human CD40 on cells [11] = molecular target: T4, human CD40 on cells; assay: cell-based or functional assay; remark: listed apart in the source
binder,measurement,setting,value
B1,CD40 specific signal over the signal for this molecule,TNFR-2/Ig,≥ 100 fold
same,"Allo DC/T IFNγ secretion, EC50",human CD40 on cells [1],0.3 µg/mL
same,"B cell B7-2 upregulation, EC50",human CD40 on cells [2],0.016 µg/mL
same,"B cell CD23 upregulation, EC50",human CD40 on cells [2],0.019 µg/mL
same,"B cell CD71 upregulation, EC50",human CD40 on cells [2],0.00073 µg/mL
same,"B cell ICAM upregulation, EC50",human CD40 on cells [2],0.0153 µg/mL
same,"B cell MHC II upregulation, EC50",human CD40 on cells [2],0.00385 µg/mL
same,binding result,[3],no binding
same,binding result,[4],no binding
same,binding result,[5],no binding
same,binding result,[6],no binding
same,binding result,[7],no binding
same,CD40 specific signal over the signal for this molecule,TNFR-1/Ig,≥ 100 fold
same,CD40 specific signal over the signal for this molecule,RANK/Ig,≥ 100 fold
same,Kd,[8],0.348 nM
same,CD40 specific signal over the signal for this molecule,4-1BB/Ig,≥ 100 fold
same,"DC IL-12p70 secretion with LPS, EC50",human CD40 on cells [9],0.3 µg/mL
same,binding result,rat CD40 on blood cells,no binding
same,binding result,[10],no binding
same,binding result,dog CD40 on blood cells,no binding
same,binding result,Mouse CD40(D1-D3)-6Xhis,no binding
same,"Dendritic cell B7-2 upregulation, EC50",human CD40 on cells [11],0.0714 µg/mL
same,"Dendritic cell CD83 upregulation, EC50",human CD40 on cells [11],0.233 µg/mL
same,"Dendritic cell ICAM upregulation, EC50",human CD40 on cells [11],0.241 µg/mL
same,"Dendritic cell MHC II upregulation, EC50",human CD40 on cells [11],0.252 µg/mL
